Laboratory results reported in the nanobody polyreactivity screen of Harvey et al. (2022).

Experiment: yeast display, Sf9 membrane polyspecificity reagent, FACS + sequencing; frameworks hold sequencing errors
Summary of the method: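 In a synthetic yeast display library (Saccharomyces cerevisiae BJ5465), nanobody expression was induced with galactose for 36–48 hours. FACS gates were set low and high (top ~1%) using anti-HA fluorescence for expression and streptavidin fluorescence for binding of the Sf9 membrane reagent. Each polyreactivity label is drawn from the gate of origin.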

Sequence | polyreactivity (PSR sort gate)
QVQLVESGGGLVQAGGSLRLSCAASGRTFVYYAMGWYRPAPGKERELVAAISSRGGSTYYADSVKGRFTISRDNAKNTVYLQMNSLKPEDTAVYYCAAVKGPERPTSPYDYWGQGTQVTVSS | high polyreactivity
QVQLVESGGGLVQAGGSLRLSCAASGRTFVYYAMGWYRQAPGKERELVAAISSRGGSTYYADTVKGRFTISRDYAKNSVYLQMYSLKPEDTAVYYCAAVIGPERPTSPFDFWGQGTQVTVSS | high polyreactivity
QVQLVESGGGLVQAGGSLRLSCAASGRTFVYYAMGWYRQAPGKERELVAAITSVGSTYYADSVKGRCTISRDNAKNTVYLQMNSLKPEDTAVYSCAKDTWAYPYYWPYDDYWGHGTQVTVSS | low polyreactivity
QVQLVESGGGLVQAGGSLRLSCAASGRTFVYYAMGWYRQAPGKERELVARISSGGSTYYADSVKGRFTISRDNAKNTVYLQMYSLKPEDTAVYYCAADAWYVWEYWWQPEDDYWGQGSQVTVSS | high polyreactivity
QVQLVESGGGLVQAGGSLRLSCAASGRTFVYYAMGWYRQAPGKERELVASISSGGGSTNYADSVKGRFTISRDNAKNTVYLQMNSLKPEDTAVYYCAVDTPRYRYYRTSYDYWGQGTQVTVSS | low polyreactivity
QVQLVESGGGLVQAGGSLRLSCAASGRTFVYYTLGWYRQPPGKERELVARISAGGGITYYADSVKGRFTISRDNAKNTVYLQMNSLNREDTAVYYCAADYWFTYRRPAYEYAYWGQGTQVTVSS | high polyreactivity
QVQLVESGGGLVQAGGSLRLSCAASGRTFWAYAMGWYRQAPGKERELVAAITTSGGSTNYADSVKGRFTISRDNAKNTVYLQMNSLKPEDTAVYYCNADPTYHVVNGVGYLGQGTQVTVSS | low polyreactivity
QVQLVESGGGLVQAGGSLRLSCAASGRTFWAYAMVWYRQAPGKERELVADITNGGSTYYADSVKGRFTISRDNAKNTVYLQMNSLKPEDTAVYYCNALTHWAPASYEYDYWGQGTQVTVSS | low polyreactivity
QVQLVESGGGLVQAGGSLRLSCAASGRTFWFYTMGWYRQAPGKERELVAAISSGGSTNYADSVKGRFTISRDNAKNTVYLQMNSLKPEDTAVYYCNARFPVGPSEDAVWYYPKYDYWGQGTQVTVSS | low polyreactivity
QVQLVESGGGLVQAGGSLRLSCAASGRTFWFYTMGWYRQAPGKERELVADIRRSGGSTYYADSVKGRFTISRDNAKNTVYLQMNSLKPEDTAVYYCASDPRRLAAGYTRYVYWGQGTQVTVSS | high polyreactivity
QVQLVESGGGLVQAGGSLRLSCAASGRTFWGYTMGWYRQAPGKERELVAAITASGGSTRYADSVKGRFTISRDNAKNTVYLQMNSLKPEDTAVYYCASRGQYFTDYYYRGNYWGQGTQVTVSS | high polyreactivity
QVQLVESGGGLVQAGGSLRLSCAASGRTFWGYVMGWYRQAPGKERELVAAISRGDSTYYADSVKGRFTISRDNAKNTVYLQMNSLKPEDTAVYYCAKPGYYVRYGYWGQGTQVTVSS | high polyreactivity
QVQLVESGGGLVQAGGSLRLSCAASGRTFWIYAMGWYRQAPGKERELVAAITGSGGSTYYADSVKGRFTISRDNAKNTVYLQMNSLKPEDTAVYYCNARVPDSYKWSAYYSHDYWGQGTQVTVSS | low polyreactivity
QVQLVESGGGLVQAGGSLRLSCAASGRTFWKYAMGWYRQAPGKERELVAAITASGARTYYADSVKGRFTISRDNAKNTVYLQMNSLKPEDTAVYYCNAGSVSDRQMDYWGQGTQVTVSS | low polyreactivity
QVQLVESGGGLVQAGGSLRLSCAASGRTFWLNAMGWYRQAPGKERELVATISRGGSTNYADSVKGRFTISRDNANNTVYLQMNSLKPEDTAVYYCAARRYYWLRGYNYWGQGTQVTVSS | high polyreactivity
QVQLVESGGGLVQAGGSLRLSCAASGRTFWNYAMGCYRQAPGKERELVAAISSSGGTTYYADSVKGRFTISRDNAKNTVYLQMNTLKPEDTAVYYCAATGVSKPQRSFGYWGQGTQVTVSS | low polyreactivity
